Laboratory results as given in patent US20200339680A1 (Alector, published 2020).
Where a chain is given by its changes, count along the chain named.

B1: TM-21 (antibody, V domains shown)
VH: EVQLVESGGGLVKPGGSLKLSCAASGFTFSNYAMSWVRETPEKRLEWVAFISDGGGYIYYADNVKDRFTISRDNAKNNLYLQMRHLKSEDTAMYYCARDGGTGFTYWGQGTLVTVSV
VL: DIVMTQAAFSNPVTLGTSASISCRSSKSLLHSNGITYLFWYLQKPGQSPQLLIYQMSNLASGVPDRFSSSGSGTDFTLRISRVEAEDVGVYYCVQNLELPYTFGGGTKLEIK
B2: TM-23 (antibody, V domains shown)
VH: QVQLQQSGAELIRPGTSVKVSCKASGYAFTNYLIEWVKKRPGQGLEWIGVINPGSGITNYNEKFKGKATLTADKSSSTAYMQLSSLTSEDSAVYFCARSDFITTVVADYWGQGTTVTVSS
VL: DIVVTQTPLSLPVSFGDQVSISCRSSQSLTNYYGNTYLSWYLHKPGQSPQLLIYGISNRFSGVPDRFSGSGSGTDFTLKISTIKPEDLGMYYCLQGTHQPRTFGGGTKLEIK
B3: TM-26 (antibody, V domains shown)
VH: B2 VH
VL: B2 VL
B4: TM-14 (antibody, V domains shown)
VH: QVQLQQSGPELVRPGTSVKVSCKASGYAFTNYLIEWVKQRPGQGLEWIGVINPGGGNTDYSEKFKDKATLTADKSSNTAYIQLSSLTSEDSAVYFCARSPYSSYVGYAVDYWGQGTSVTVSS
VL: DIQMTQSPSSLSASLGERVSLTCRASQDIGSNLNWLQQEPDGTIKRLIYATSSLDSGVPKRFSGSRSGSDYSLTISSLESEDFVVYYCLQYASSPRTFGGGTRLEIK
notes: mouse IgG (hybridoma)
B5: TM-17 (antibody, V domains shown)
VH: QVQLQQSGAELIRPGTSVKVSCKASGYAFTDYLIEWVKQRPGQGLEWIGVINPGSGGTNYNEKFKGKAKLTADKSSSTAYMQLSSLTSEDSAVYFCVRSSYGVYVAYPMDYWGQGTSVTVSS
VL: B4 VL with V85D, R103K
B6: TM-15 (antibody, V domains shown)
VH: QVQLQQPGAEFVRPGASVKLSCKASGYTFTNYWITWVKQRPGHGLEWIGDIYPGSGNSNYNESFKRKATLTVDTSSSTAYMHLSSQTSEDSAVYFCARKAYGGFPYWGQGTLVTVSA
VL: DIQMTQSPASLSVSVGETVTITCRVSENIYNNLAWYQQKQEKSPQLLVFAATNLADGVPSRFSGSGSGTQFSLKINSLQSEDFGTYYCQHFWDTPFTFGSGTKLEIK
notes: mouse IgG (hybridoma)
B7: TM-13 (antibody, V domains shown)
VH: QVQLQQSGAELVKPGASVKMSCKASGYTFTTFPIEWMKQSHGKGLEWIGNFHPYNDDTKYNEKFKGKATLTVDKSSSTVYLDLSRLTSDDSAVYYCARYFYGGMDYWGQGTSVTVSS
VL: DIQMTQSPASLSVSVGETVTITCRASENIYSSLGWYQQKQGESPQLLVFAATNLADGVPSRFSGSGSGTQYSLKINSLQSEDFGTYYCQHLWSIPWTFGGGTRLEIK
B8: TM-18 (antibody, V domains shown)
VH: EVRLQQSGPELVKPGASVKISCKTSGYTFTDYYMNWVKQSHGKSLEWIVNINPNNGDAFYNQKFKGKATLTVDKSSNTAYLDLRSLTSEDSAVYYCAREGQLRLRRVYAMDYWGQGTSVTVSS
VL: DIVLAQSPASLAVSLGQRATISCRASKSVSISVYTYVHWYQQKPGQPPKLLIYLASNLESGVPARFSGSGSGTDFTLNIHPVEEEDAATYYCQHSRELPYTFGGGTKLEIK
B9: TM-11 (antibody, V domains shown)
VH: QVQLKQSGPGQVQPSQSLSITCTVSGFSLSDYGVHWVRQSPGKGLEWLGVIWNNGNTDYNAAFISRLSINKDNSKSQVFFKMTSLQADDTAIYYCVRSLRPLHFDYWGQGTTVTVSS
VL: DIVMTQSPSSLTMSVGQKVTMHCKSSQSLLNSNNLQNYLAWYQQKPGQSPTLLVYFASIRESGVPDRFIGSGSGTDFTLTISSVQAEDLADYFCQQHYNTPFTFGSGTKLEIR
B10: TM-25 (antibody, V domains shown)
VH: EVQLVESGGDLVKPGGSLRLSCAASGFTFSGYGMSWIRQTPDKRLEWVATISSGGRYTVYPDSVKGRFTMSRDNVKNTLYLQMSSLKSEDTALYYCARDNFYSYAMDYWGLGTSVTVSA
VL: DIVMTQAAFSNPVTLGTSASISCRSSKSLLHSNGITYLFWYLQKPGQSPQLLIYQMSNLASGVPDRFSSSGSGTDFTLRISRVEAEDVGVYYCAQNLELWTFGGGTKLEIK
B11: TM-12 (antibody, V domains shown)
VH: EVQLQQSGAELMRPGASVKLSCTASGFNIQDYYMYWVKQRPEQGLEWIGRIDPEDGDAEYAPKFQGKATMTADTSSNTAYLQLSSLTSEDTAVYYCSTRVIYDGYYRTMDCWGQGTSVTVSS
VL: DVLMTQIPLSLPVSLGDQASISCRSSQTIVHSNGNTYLEWYLKKPGQSPKLLIDKISNRFSGVPDRFSGSGSGTDFTLKISRVEAEDLGVYYCFQGSHVPYTFGGGTKLEIK
B12: TM-19 (antibody, V domains shown)
VH: DVQLQQSGAELVRPGASVKLSCTASGFNIKDYYMYWVKQRPEQGLEWIGRIDPEDGDTENAPKFRGMATMTADTSSNTAYLQLNSLTSEDTAVYYCTTRIGNLYHVMDYWGHGTSVTVSS
VL: B11 VL with I7T, T28S, K43Q, S48A, I56V, S57F, Y101F, G105S
B13: TM-22 (antibody, V domains shown)
VH: QVQLQQSGPELVKPGASVKISCKASGYRFTSYYIHWVKQRPGQGLEWIGWIYPGNGITNYNEKFKGKATLTADTSSSTAYMQLSSLTSEDSAVYYCASPYYGIRNCYFDVWGTGTTVTVSS
VL: B11 VL with I7T, Q18H, S26G, T28S, K43Q, D54Y, I56V, V90I, Y101W

Each binder was assayed against T1, human TMEM106B (human, UniProt Q9NUM4 2-274) (assay: FACS HEK+huTMEM 0.1 ug/ml;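 further: flow cytometry binding of purified mouse IgG antibodies to HEK293 cells transiently expressing TMEM106B, read as median fluorescence intensity on live cells (propidium iodide negative gating)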).
T1 construct: full-length, transiently expressed on HEK293 cells, or natively expressed on HeLa, U251 and A549 cells (the cell is named under assay); also the source of the Pepscan peptides; also called huTMEM106B; huTMEM

Row | Binder | MFI [MFI]
1 | B1 | 15600
2 | B2 | 2410
3 | B3 | 1960
4 | B4 | 364
5 | B5 | 1910
6 | B6 | 2060
7 | B7 | 19100
8 | B8 | 10600
9 | B9 | 16200
10 | B10 | 32800
11 | B11 | 19700
12 | B12 | 29800
13 | B13 | 833

What follows are binders tested against T2, mouse TMEM106B (mouse, UniProt Q80X71 2-275) (assay: FACS Neuro2a;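 further: flow cytometry of antibody binding to cells: hybridoma supernatant or purified antibody at 10 µg/ml, 1 h on ice, secondary detection, propidium iodide–positive dead cells gated out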).
T2 construct: transiently expressed on HEK293 cells, or native on mouse Neuro2a cells; also called moTMEM106B; murine TMEM106B
Protocol: (§1) All cells were cultured in either T75 or T150 flasks. […] The enzyme was quenched by addition of fresh media, and the cells were then distributed into 96-well plates for FACS analysis.
(§2) FACS analysis was performed as follows. Each cell type was aliquoted in 96-well round bottom plates (2×10^5 cells per well), washed once with FACS buffer (PBS+2% FBS+1 mM EDTA), and incubated with 50 μL of hybridoma supernatant or purified antibody (10 μg/ml in FACS buffer) on ice for 1 hour. […] Following this secondary incubation, the cells were again washed 2× with ice-cold FACS buffer and resuspended in a final volume of 50 μL of FACS buffer+0.25 μl/well propidium iodide (Fisher Scientific #4BDB556463). Analysis was performed on a FACSCanto system (BD Biosciences) or iQue (Intellicyt), with sort gates drawn to exclude dead (i.e., propidium iodide positive) cells.

Row | Binder | MFI [MFI]
14 | B1 | 706
15 | B2 | 333
16 | B3 | 324
17 | B4 | 300
18 | B5 | 385
19 | B6 | 470
20 | B7 | 927
21 | B8 | 1930
22 | B9 | 1040
23 | B10 | 354
24 | B11 | 3040
25 | B12 | 2140
26 | B13 | 400

These binders were tested against T1, human TMEM106B (assay: FACS U251).

Row | Binder | MFI [MFI]
27 | B1 | 672
28 | B2 | 278
29 | B3 | 300
30 | B4 | 270
31 | B5 | 305
32 | B6 | 382
33 | B7 | 787
34 | B8 | 874
35 | B9 | 866
36 | B10 | 1110
37 | B11 | 1330
38 | B12 | 878
39 | B13 | 313

Each binder was assayed against T1, human TMEM106B (assay: FACS A549;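 further: flow cytometry of cells incubated on ice for 1 h with hybridoma supernatant or purified antibody at 10 µg/mL, dead propidium iodide-positive cells gated out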).
Protocol: as §1, §2

Row | Binder | MFI [MFI]
40 | B1 | 1030
41 | B2 | 1090
42 | B3 | 952
43 | B4 | 896
44 | B5 | 953
45 | B6 | 938
46 | B7 | 1260
47 | B8 | 1490
48 | B9 | 1340
49 | B10 | 1700
50 | B11 | 1940
51 | B12 | 1820
52 | B13 | 1570

What follows are binders tested against T1, human TMEM106B (assay: FACS A549 10 ug/ml).

Row | Binder | MFI [MFI]
53 | B1 | 4230
54 | B2 | 757
55 | B3 | 509
56 | B4 | 438
57 | B5 | 425
58 | B6 | 1980
59 | B7 | 3890
60 | B8 | 5190
61 | B9 | 5580
62 | B10 | 7000
63 | B11 | 4950
64 | B12 | 4960
65 | B13 | 478

Each binder was assayed against T1, human TMEM106B (assay: FACS HEK+huTMEM 10 ug/ml;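 further: flow cytometric binding of purified mouse IgG antibodies to HEK293 cells transiently expressing human TMEM106B, read as median fluorescence intensity on live cells with propidium iodide-positive cells excluded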).

Row | Binder | MFI [MFI]
66 | B1 | 69400
67 | B2 | 12400
68 | B3 | 3850
69 | B4 | 1190
70 | B5 | 3960
71 | B6 | 63100
72 | B7 | 67500
73 | B8 | 71700
74 | B9 | 57900
75 | B10 | 60300
76 | B11 | 75300
77 | B12 | 79000
78 | B13 | 3580

Each binder was assayed against T1, human TMEM106B (assay: FACS HEK+huTMEM 0.1 ug/ml (2nd column so headed);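 further: flow cytometry binding of purified anti-TMEM106B mouse IgG to HEK293 cells transiently transfected with TMEM106B, read as median fluorescence intensity on live (propidium iodide-negative) cells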).
Protocol: (§3) Purified anti-TMEM106B antibodies were evaluated for their binding affinity to various TMEM106B-expressing cell lines including HEK293 transiently transfected with human/cyno/mouse TMEM106B, as well as HeLa cells and A549 cells. Antibodies tested for this experiment were mouse IgGs purified from hybridoma supernatant. Affinity binding to cells was determined as follows. Briefly, 1×10\hat{ }5 cells were aliquoted per well in 96-well round bottom plates and incubated with 50 μL of purified anti-TMEM106B antibody at various concentrations (10× dilutions starting at 10 μg/ml) in FACS buffer (PBS+2% FBS+1 mM EDTA). […] Sorting was performed on a iQue (Intellicyt), with sort gates drawn to exclude dead (propidium iodide+) cells. Binding data was analyzed using median fluorescent intensity (MFI) and graphed in Prism. Values presented are MFI.

Row | Binder | MFI [MFI]
79 | B1 | 2350
80 | B2 | 1100
81 | B3 | 1000
82 | B4 | 314
83 | B5 | 1150
84 | B6 | 584
85 | B7 | 2900
86 | B8 | 1740
87 | B9 | 4280
88 | B10 | 4310
89 | B11 | 3340
90 | B12 | 3340
91 | B13 | 500

What follows are binders tested against T1, human TMEM106B (assay: FACS A549 1 ug/ml).
Protocol: as §3

Row | Binder | MFI [MFI]
92 | B1 | 2030
93 | B2 | 398
94 | B3 | 380
95 | B4 | 409
96 | B5 | 379
97 | B6 | 650
98 | B7 | 1950
99 | B8 | 2620
100 | B9 | 2870
101 | B10 | 4530
102 | B11 | 3150
103 | B12 | 3640
104 | B13 | 399

These binders were tested against T1, human TMEM106B (assay: FACS HeLa).

Row | Binder | MFI [MFI]
105 | B1 | 1200
106 | B2 | 308
107 | B3 | 384
108 | B4 | 307
109 | B5 | 437
110 | B6 | 660
111 | B7 | 1380
112 | B8 | 1920
113 | B9 | 1870
114 | B10 | 2560
115 | B11 | 2660
116 | B12 | 2430
117 | B13 | 408

What follows are binders tested against T1, human TMEM106B (assay: FACS HEK+huTMEM 1.0 ug/ml;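 further: binding of purified mouse IgG antibodies to HEK293 cells transiently expressing human TMEM106B, read by flow cytometry as median fluorescence intensity of live, propidium iodide-negative cells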).

Row | Binder | MFI [MFI]
118 | B1 | 69400
119 | B2 | 3900
120 | B3 | 3340
121 | B4 | 680
122 | B5 | 2620
123 | B6 | 14300
124 | B7 | 67100
125 | B8 | 67300
126 | B9 | 54600
127 | B10 | 64700
128 | B11 | 77800
129 | B12 | 66800
130 | B13 | 2100
